Experimental findings from patent US20240270846A1 (published 2024) are described below.

The chains are these.
B1: CE115HA000 G98A one-arm antibody (antibody, human IgG1, kappa, L234A L235A, N297A, name in Kabat numbering)
heavy: QVQLVESGGGVVQPGRSLRLSCAASGFTFSNAWMHWVRQAPGKGLEWVAQIKAKSNNYATYYAESVKGRFTISRDDSKNSLYLQMNSLKTEDTAVYYCRYVHYAAYYGVDAWGQGTTVTVSSASTKGPSVFPLAPSSKSTSGGTAALGCLVKDYFPEPVTVSWNSGALTSGVHTFPAVLQSSGLYSLSSVVTVPSSSLGTQTYICNVNHKPSNTKVDKKVEPKSCDKTHTCPPCPAPEAAGGPSVFLFPPKPKDTLMISRTPEVTCVVVDVSHEDPEVKFNWYVDGVEVHNAKTKPREEQYASTYRVVSVLTVLHQDWLNGKEYKCKVSNKALPAPIEKTISKAKGQPREPQVYTLPPSRCELTKNQVSLSCAVKGFYPSDIAVEWESNGQPENNYKTTPPVLDSDGSFFLVSKLTVDKSRWQQGNVFSCSVMHEALHNHYTQKSLSLSPDYKDDDDK
chain: EPKSSDKTHTCPPCPAPELLGGPSVFLFPPKPKDTLMISRTPEVTCVVVDVSHEDPEVKFNWYVDGVEVHNAKTKPREEQYNSTYRVVSVLTVLHQDWLNGKEYKCKVSNKALPAPIEKTISKAKGQPREPQVCTLPPSRDELTKNQVSLWCLVKGFYPSDIAVEWESNGQPENNYKTTPPVLDSDGSFFLYSKLTVDKSRWQQGNVFSCSVMHEALHNRYTQKSLSLSP
light: DIVMTQSPLSLPVTPGEPASISCRSSQSLVHSNRNTYLHWYQQKPGQAPRLLIYKVSNRFSGVPDRFSGSGSGTDFTLKISRVEAEDVGVYYCGQGTQVPYTFGQGTKLEIKRTVAAPSVFIFPPSDEQLKSGTASVVCLLNNFYPREAKVQWKVDNALQSGNSQESVTEQDSKDSTYSLSSTLTLSKADYEKHKVYACEVTHQGLSSPVTKSFNRGEC
notes: one-arm antibody (one Fab)
B2: CE115HA000 G98P one-arm antibody (antibody, human IgG1, kappa, L234A L235A, N297A, name in Kabat numbering)
heavy: B1 heavy with A104P
chain: B1 chain
light: B1 light
notes: one-arm antibody (one Fab)
B3: CE115HA000 G98T one-arm antibody (antibody, human IgG1, kappa, L234A L235A, N297A, name in Kabat numbering)
heavy: B1 heavy with A104T
chain: B1 chain
light: B1 light
notes: one-arm antibody (one Fab)
B4: CE115HA000 G100bY one-arm antibody (antibody, human IgG1, kappa, L234A L235A, N297A, name in Kabat numbering)
heavy: B1 heavy with A104G, G108Y
chain: B1 chain
light: B1 light
notes: one-arm antibody (one Fab)
B5: CE115HA000 G100bS one-arm antibody (antibody, human IgG1, kappa, L234A L235A, N297A, name in Kabat numbering)
heavy: B1 heavy with A104G, G108S
chain: B1 chain
light: B1 light
notes: one-arm antibody (one Fab)
B6: CE115HA000 G100bL one-arm antibody (antibody, human IgG1, kappa, L234A L235A, N297A, name in Kabat numbering)
heavy: B1 heavy with A104G, G108L
chain: B1 chain
light: B1 light
notes: one-arm antibody (one Fab)
B7: CE115HA000 G98H one-arm antibody (antibody, human IgG1, kappa, L234A L235A, N297A, name in Kabat numbering)
heavy: B1 heavy with A104H
chain: B1 chain
light: B1 light
notes: one-arm antibody (one Fab)
B8: CE115HA000 H96R one-arm antibody (antibody, human IgG1, kappa, L234A L235A, N297A, name in Kabat numbering)
heavy: B1 heavy with H102R, A104G
chain: B1 chain
light: B1 light
notes: one-arm antibody (one Fab)
B9: CE115HA000 G98D one-arm antibody (antibody, human IgG1, kappa, L234A L235A, N297A, name in Kabat numbering)
heavy: B1 heavy with A104D
chain: B1 chain
light: B1 light
notes: one-arm antibody (one Fab)
B10: CE115HA000 G98R one-arm antibody (antibody, human IgG1, kappa, L234A L235A, N297A, name in Kabat numbering)
heavy: B1 heavy with A104R
chain: B1 chain
light: B1 light
notes: one-arm antibody (one Fab)
B11: CE115HA000 G98Y one-arm antibody (antibody, human IgG1, kappa, L234A L235A, N297A, name in Kabat numbering)
heavy: B1 heavy with A104Y
chain: B1 chain
light: B1 light
notes: one-arm antibody (one Fab)
B12: CE115HA000 G98S one-arm antibody (antibody, human IgG1, kappa, L234A L235A, N297A, name in Kabat numbering)
heavy: B1 heavy with A104S
chain: B1 chain
light: B1 light
notes: one-arm antibody (one Fab)
B13: CE115HA000 G100bF one-arm antibody (antibody, human IgG1, kappa, L234A L235A, N297A, name in Kabat numbering)
heavy: B1 heavy with A104G, G108F
chain: B1 chain
light: B1 light
notes: one-arm antibody (one Fab)
B14: CE115HA000 H96K one-arm antibody (antibody, human IgG1, kappa, L234A L235A, N297A, name in Kabat numbering)
heavy: B1 heavy with H102K, A104G
chain: B1 chain
light: B1 light
notes: one-arm antibody (one Fab)
B15: CE115HA000 H96L one-arm antibody (antibody, human IgG1, kappa, L234A L235A, N297A, name in Kabat numbering)
heavy: B1 heavy with H102L, A104G
chain: B1 chain
light: B1 light
notes: one-arm antibody (one Fab)
B16: CE115HA000 G98Q one-arm antibody (antibody, human IgG1, kappa, L234A L235A, N297A, name in Kabat numbering)
heavy: B1 heavy with A104Q
chain: B1 chain
light: B1 light
notes: one-arm antibody (one Fab)
B17: CE115HA000 G100bE one-arm antibody (antibody, human IgG1, kappa, L234A L235A, N297A, name in Kabat numbering)
heavy: B1 heavy with A104G, G108E
chain: B1 chain
light: B1 light
notes: one-arm antibody (one Fab)
B18: CE115HA000 H96Q one-arm antibody (antibody, human IgG1, kappa, L234A L235A, N297A, name in Kabat numbering)
heavy: B1 heavy with H102Q, A104G
chain: B1 chain
light: B1 light
notes: one-arm antibody (one Fab)
B19: CE115HA000 H96P one-arm antibody (antibody, human IgG1, kappa, L234A L235A, N297A, name in Kabat numbering)
heavy: B1 heavy with H102P, A104G
chain: B1 chain
light: B1 light
notes: one-arm antibody (one Fab)
B20: CE115HA000 G100bD one-arm antibody (antibody, human IgG1, kappa, L234A L235A, N297A, name in Kabat numbering)
heavy: B1 heavy with A104G, G108D
chain: B1 chain
light: B1 light
notes: one-arm antibody (one Fab)
B21: CE115HA000 G98K one-arm antibody (antibody, human IgG1, kappa, L234A L235A, N297A, name in Kabat numbering)
heavy: B1 heavy with A104K
chain: B1 chain
light: B1 light
notes: one-arm antibody (one Fab)
B22: CE115HA000 H96G one-arm antibody (antibody, human IgG1, kappa, L234A L235A, N297A, name in Kabat numbering)
heavy: B1 heavy with H102G, A104G
chain: B1 chain
light: B1 light
notes: one-arm antibody (one Fab)

Positions count from the first letter of the chain named. Numbers in names are those of the source.

T1 sequence (P07766 23-126): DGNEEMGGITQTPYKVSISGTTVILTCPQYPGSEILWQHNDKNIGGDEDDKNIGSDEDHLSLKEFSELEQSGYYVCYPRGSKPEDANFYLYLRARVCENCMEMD

The test has as its target T1, CD3 epsilon homodimer protein (UniProt P07766 23-126).
T1 construct: Immobilized on Sensor chip CM4 by amine coupling; construct not described; also called CD3 (CD3 epsilon)
Briefly: SPR Biacore T200, CD3 epsilon homodimer on CM4 chip, antibody as analyte.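 Note: Amine-coupled CD3 epsilon homodimer, run at 25 °C in HBS-EP+ buffer, ratio is bound amount of each single-residue H chain variant over that of the parent antibody.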 For orientation: In SPR one partner is held on a chip, and binding of the other changes the refractive index at the surface.
Turning to B1, the “ratio of amounts bound (Y/X vs CE115HA000)” value (“ratio of amounts bound” for short) was 1.1.
For the molecule B2, the “ratio of amounts bound” value amounted to 1.02.
The value for B3 was 1.05.
Under B4 stands 0.23; under B5, 0.52.
The value for B6 was 0.27.
Turning to B7, the “ratio of amounts bound” value stood at 1.58.
Under B8 stands 0.46; under B9, 0.26.
Under B10 stands 2.96; under B11, 2.22.
The value for B12 was 1.01; that for B13 was 0.3.
Consider B14, for which the “ratio of amounts bound” value was determined as 0.35.
As to B15, the “ratio of amounts bound” value is 0.14.
Under B16 stands 1.22; under B17, 0.26.
With B18, the “ratio of amounts bound” value was 0.42.
Turning to B19, the “ratio of amounts bound” value came out at 0.12.
Under B20 stands 0.27; under B21, 2.83; under B22, 0.43.
